Consider one molecule from publication PMC10811509, “APP‐C31: An Intracellular Promoter of Both Metal‐Free and Metal‐Bound Amyloid‐β40 Aggregation and Toxicity in Alzheimer's Disease” (Advanced Science, 2023).

Holding throughout (conditions): both partners purified
For experiment [1], the target named is T1, amyloid‐β40 (Aβ40).
T1 construct: Amyloid-beta 40, cut from amyloid precursor protein (APP) by beta- and gamma-secretases; numbers count on: the Aβ peptide (Asp1 to Val40); Unlabelled peptide; Metal-treated samples (CuCl2, ZnCl2) are told apart by the assay; also called metal-free Aβ40; Cu(II)–Aβ40 and Zn(II)–Aβ40 when treated with CuCl2 or ZnCl2; source: bought: Peptide Institute (HPLC-purified) or Anaspec
Nature of the experiment: ITC; APP-C31 600 µM in the syringe, Aβ40 30 µM in the cell; 20 mM HEPES, pH 7.4; 10 °C; one set of sites model.

The target in experiment [2] is T2, uniformly ^15N‐labeled Aβ40 (uniformly 15N-labeled).
T2 construct: Amyloid-beta 40, cut from amyloid precursor protein (APP); numbers count on: the Aβ peptide (Asp1 to Val40); also called ^15N‐labeled Aβ40 monomer; source: bought: rPeptide Inc
Put plainly: NMR titration; 2D 1H–15N HSQC (700 MHz); 15N-labeled Aβ40 40 µM, CuCl2 20 µM, APP-C31 200 µM; 20 mM HEPES, pH 7.4; 10 °C.

Experiment [3] deals with T1, amyloid‐β40 (Aβ40). Put plainly: native MS; ESI–MS; APP-C31 100 µM incubated with Aβ40 100 µM, 20 mM ammonium acetate, pH 7.3, 37 °C, 2 h, no agitation; diluted tenfold before injection; no metal.

T1 sequence (peptide, as listed by the source): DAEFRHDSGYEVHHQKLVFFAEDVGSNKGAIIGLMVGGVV
T2 sequence (peptide, as listed by the source): as above

B1: APP‐C31 (APP_(665–695)) (peptide)
peptide: AAVTPEERHLSKMQQNGYENPTYKFFEQMQN
notes: C-terminal 31 residues of amyloid precursor protein (APP), produced by caspase cleavage; residues 665-695; source: bought: AnaSpec
The stoichiometry N is a count of units in the complex or per binding partner. In the case of B1, in experiment [1], the Kd was 150 ± 11.4 µM and the dH is -1.5 ± 0.3 kcal/mol. In experiment [2], the binding result is on record as “binds”. Also, the “stoichiometry N” value in experiment [3] came out at 1.
